± gives the uncertainty stated by the source.
B1: Cell division cycle and apoptosis regulator protein 1, residues 625 to 674; numbered along this chain, Q8IX12 (parent)
chain: ISTPTHWSKLDPKTMKVNDLRKELESRALSSKGLKSQLIARLTKQLKVEE

Variants of: B1
Assay: abundance fitness (aPCA) (normalised: wild type 0, dead -1); higher = more abundant; growth selection in yeast, the domain comes from the species named
Settings: Homo sapiens

Row | Variant | abundance fitness
1 | ISTPTHWSKLDPKTMKVNDLRKELESRALSSKGLKSQQIARLTKQLKVEE [L38Q] | -0.366 ± 0.046
2 | ISTPTHWSKLDPKTMKVNDLRKELESRALSSKGLKSQPIARLTKQLKVEE [L38P] | -0.634 ± 0.046
3 | ISTPTHWSKLDPKTMKVNDLRKELESRALSSKGLKSQEIARLTKQLKVEE [L38E] | -0.423 ± 0.035
4 | ISTPTHWSKLDPKTMKVNDLRKELESRALSSKGLKSQDIARLTKQLKVEE [L38D] | -0.332 ± 0.045
5 | ISTPTHWSKLDPKTMKVNDLRKELESRALSSKGLKSQHIARLTKQLKVEE [L38H] | -0.628 ± 0.07
6 | ISTPTHWSKLDPKTMKVNDLRKELESRALSSKGLKSQYIARLTKQLKVEE [L38Y] | -0.832 ± 0.075
7 | ISTPTHWSKLDPKTMKVNDLRKELESRALSSKGLKSQKIARLTKQLKVEE [L38K] | -0.324 ± 0.046
8 | ISTPTHWSKLDPKTMKVNDLRKELESRALSSKGLKSQGIARLTKQLKVEE [L38G] | -0.603 ± 0.034
9 | ISTPTHWSKLDPKTMKVNDLRKELESRALSSKGLKSQCIARLTKQLKVEE [L38C] | -0.477 ± 0.066
10 | ISTPTHWSKLDPKTMKVNDLRKELESRALSSKGLKSQRIARLTKQLKVEE [L38R] | -0.583 ± 0.046
11 | ISTPTHWSKLDPKTMKVNDLRKELESRALSSKGLKSQAIARLTKQLKVEE [L38A] | -0.534 ± 0.03
12 | ISTPTHWSKLDPKTMKVNDLRKELESRALSSKGLKSQMIARLTKQLKVEE [L38M] | -0.049 ± 0.052
13 | ISTPTHWSKLDPKTMKVNDLRKELESRALSSKGLKSQNIARLTKQLKVEE [L38N] | -0.666 ± 0.086
14 | ISTPTHWSKLDPKTMKVNDLRKELESRALSSKGLKSQSIARLTKQLKVEE [L38S] | -0.592 ± 0.044
15 | ISTPTHWSKLDPKTMKVNDLRKELESRALSSKGLKSQTIARLTKQLKVEE [L38T] | -0.63 ± 0.047
16 | ISTPTHWSKLDPKTMKVNDLRKELESRALSSKGLKSQFIARLTKQLKVEE [L38F] | -0.866 ± 0.085
17 | ISTPTHWSKLDPKTMKVNDLRKELESRALSSKGLKSQLIAHLTKQLKVEE [R41H] | -0.374 ± 0.051
18 | ISTPTHWSKLDPKTMKVNDLRKELESRALSSKGLKSQLIALLTKQLKVEE [R41L] | -0.331 ± 0.041
19 | ISTPTHWSKLDPKTMKVNDLRKELESRALSSKGLKSQLIADLTKQLKVEE [R41D] | -0.434 ± 0.096
20 | ISTPTHWSKLDPKTMKVNDLRKELESRALSSKGLKSQLIAELTKQLKVEE [R41E] | -0.212 ± 0.045
21 | ISTPTHWSKLDPKTMKVNDLRKELESRALSSKGLKSQLIAALTKQLKVEE [R41A] | -0.377 ± 0.059
22 | ISTPTHWSKLDPKTMKVNDLRKELESRALSSKGLKSQLIAQLTKQLKVEE [R41Q] | -0.466 ± 0.077
23 | ISTPTHWSKLDPKTMKVNDLRKELESRALSSKGLKSQLIAKLTKQLKVEE [R41K] | -0.202 ± 0.03
24 | ISTPTHWSKLDPKTMKVNDLRKELESRALSSKGLKSQLIAFLTKQLKVEE [R41F] | -0.814 ± 0.07
25 | ISTPTHWSKLDPKTMKVNDLRKELESRALSSKGLKSQLIATLTKQLKVEE [R41T] | -0.237 ± 0.051
26 | ISTPTHWSKLDPKTMKVNDLRKELESRALSSKGLKSQLIANLTKQLKVEE [R41N] | -0.235 ± 0.045

Row | Variant | abundance fitness
27 | ISTPTHWSKLDPKTMKVNDLRKELESRALSSKGLKSQLIAGLTKQLKVEE [R41G] | -0.556 ± 0.041
28 | ISTPTHWSKLDPKTMKVNDLRKELESRALSSKGLKSQLIAVLTKQLKVEE [R41V] | -0.417 ± 0.043
29 | ISTPTHWSKLDPKTMKVNDLRKELESRALSSKGLKSQLIAPLTKQLKVEE [R41P] | -0.728 ± 0.084
30 | ISTPTHWSKLDPKTMKVNDLRKELESRALSSKGLKSQLIAMLTKQLKVEE [R41M] | -0.356 ± 0.045
31 | ISTPTHWSKLDPKTMKVNDLRKELESRALSSKGLKSQLIAWLTKQLKVEE [R41W] | -0.877 ± 0.069
32 | ISTPTHWSKLDPKTMKVNDLRKELESRALSSKGLKSQLIAILTKQLKVEE [R41I] | -0.416 ± 0.061
33 | ISTPTHWSKLDPKTMKVNDLRKELESRALSSKGLKSQLIASLTKQLKVEE [R41S] | -0.271 ± 0.035
34 | ISTPTHWSKLDPKTMKVNDLRKELESRALSSKGLKSQLIPRLTKQLKVEE [A40P] | -0.12 ± 0.041
35 | ISTPTHWSKLDPKTMKVNDLRKELESRALSSKGLKSQLIFRLTKQLKVEE [A40F] | 0.032 ± 0.059
36 | ISTPTHWSKLDPKTMKVNDLRKELESRALSSKGLKSQLILRLTKQLKVEE [A40L] | -0.095 ± 0.036
37 | ISTPTHWSKLDPKTMKVNDLRKELESRALSSKGLKSQLISRLTKQLKVEE [A40S] | -0.028 ± 0.033
38 | ISTPTHWSKLDPKTMKVNDLRKELESRALSSKGLKSQLIYRLTKQLKVEE [A40Y] | 0.219 ± 0.043
39 | ISTPTHWSKLDPKTMKVNDLRKELESRALSSKGLKSQLIDRLTKQLKVEE [A40D] | -0.05 ± 0.04
40 | ISTPTHWSKLDPKTMKVNDLRKELESRALSSKGLKSQLIKRLTKQLKVEE [A40K] | -0.349 ± 0.069
41 | ISTPTHWSKLDPKTMKVNDLRKELESRALSSKGLKSQLICRLTKQLKVEE [A40C] | -0.07 ± 0.046
42 | ISTPTHWSKLDPKTMKVNDLRKELESRALSSKGLKSQLIIRLTKQLKVEE [A40I] | -0.186 ± 0.065
43 | ISTPTHWSKLDPKTMKVNDLRKELESRALSSKGLKSQLIHRLTKQLKVEE [A40H] | 0.1 ± 0.064
44 | ISTPTHWSKLDPKTMKVNDLRKELESRALSSKGLKSQLITRLTKQLKVEE [A40T] | -0.108 ± 0.048
45 | ISTPTHWSKLDPKTMKVNDLRKELESRALSSKGLKSQLIMRLTKQLKVEE [A40M] | 0.034 ± 0.035
46 | ISTPTHWSKLDPKTMKVNDLRKELESRALSSKGLKSQLINRLTKQLKVEE [A40N] | -0.066 ± 0.036
47 | ISTPTHWSKLDPKTMKVNDLRKELESRALSSKGLKSQLIGRLTKQLKVEE [A40G] | 0.03 ± 0.032
48 | ISTPTHWSKLDPKTMKVNDLRKELESRALSSKGLKSQLIRRLTKQLKVEE [A40R] | 0.019 ± 0.042
49 | ISTPTHWSKLDPKTMKVNDLRKELESRALSSKGLKSQLKARLTKQLKVEE [I39K] | 0.016 ± 0.048
50 | ISTPTHWSKLDPKTMKVNDLRKELESRALSSKGLKSQLPARLTKQLKVEE [I39P] | -0.366 ± 0.066
51 | ISTPTHWSKLDPKTMKVNDLRKELESRALSSKGLKSQLRARLTKQLKVEE [I39R] | -0.013 ± 0.034
52 | ISTPTHWSKLDPKTMKVNDLRKELESRALSSKGLKSQLGARLTKQLKVEE [I39G] | -0.286 ± 0.035
